According to patent US20160264649A1:

What was measured:
Test in all cases: cell-based or functional assay
[1] = target: HIV-1 6535.3 (Acute) Env on pseudovirus (HIV-1)
[2] = target: HIV-1 92RW020 Env (HIV-1)
[3] = target: HIV-1 92UG005 Env (HIV-1)
[4] = target: HIV-1 93IN905 Env (HIV-1)
[5] = target: HIV-1 93IN905 Env on pseudovirus (HIV-1)
[6] = target: HIV-1 98CN006 Env on pseudovirus (HIV-1)
[7] = target: HIV-1 98CN009 Env on pseudovirus (HIV-1)
[8] = target: HIV-1 98IN022 Env on pseudovirus (HIV-1)
[9] = target: HIV-1 APV-13 Env (HIV-1)
[10] = target: HIV-1 APV_17 Env on pseudovirus (HIV-1)
[11] = target: HIV-1 IAVI-C3 Env (HIV-1)
[12] = target: HIV-1 LAVI_C22 Env on pseudovirus (HIV-1)
[13] = target: HIV-1 MGRM-AE-001 Env (HIV-1)
[14] = target: HIV-1 MGRM-AE-003 Env (HIV-1)
[15] = target: HIV-1 MGRM-AE-005 Env (HIV-1)
[16] = target: HIV-1 MGRM-AE-006 Env (HIV-1)
[17] = target: HIV-1 MGRM-AE-007 Env (HIV-1)
[18] = target: HIV-1 MGRM-AG-006 Env (HIV-1)
[19] = target: HIV-1 MGRM-AG-008 Env (HIV-1)
[20] = target: HIV-1 MGRM-AG-009 Env (HIV-1)
[21] = target: HIV-1 MGRM-C-008 Env on pseudovirus (HIV-1)
[22] = target: HIV-1 MGRM-C-012 Env on pseudovirus (HIV-1)
[23] = target: HIV-1 MGRM-C-014 Env on pseudovirus (HIV-1)
[24] = target: HIV-1 MGRM-C-019 Env on pseudovirus (HIV-1)
[25] = target: HIV-1 MGRM-C-024 Env on pseudovirus (HIV-1)
[26] = target: HIV-1 MGRM-Chronic-B-001 Env on pseudovirus (HIV-1)
[27] = target: HIV-1 MGRM-Chronic-B-010 Env on pseudovirus (HIV-1)
[28] = target: HIV-1 MGRM-Chronic-B-011 Env on pseudovirus (HIV-1)
[29] = target: HIV-1 MGRM-Chronic-B-012 Env on pseudovirus (HIV-1)
[30] = target: HIV-1 MGRM-Chronic-B-018 Env on pseudovirus (HIV-1)
[31] = target: HIV-1 MGRM-D-011 Env (HIV-1)
[32] = target: HIV-1 MGRM-D-012 Env (HIV-1)
[33] = target: HIV-1 MGRM-D-013 Env (HIV-1)
[34] = target: HIV-1 MGRM-D-016 Env (HIV-1)
[35] = target: HIV-1 MGRM-D-019 Env (HIV-1)
[36] = target: HIV-1 MGRM-D-021 Env (HIV-1)
[37] = target: HIV-1 MGRM-D-024 Env (HIV-1)
[38] = target: HIV-1 MGRM-D-026 Env (HIV-1)
[39] = target: HIV-1 MGRM-F1-004 Env (HIV-1)
[40] = target: HIV-1 MGRM-F1-018 Env (HIV-1)
[41] = target: HIV-1 MGRM-G-001 Env (HIV-1)
[42] = target: HIV-1 MGRM-G-006 Env (HIV-1)
[43] = target: HIV-1 MGRM-G-009 Env (HIV-1)
[44] = target: HIV-1 MGRM-G-011 Env (HIV-1)
[45] = target: HIV-1 MGRM-G-014 Env (HIV-1)
[46] = target: HIV-1 MGRM-G-015 Env (HIV-1)
[47] = target: HIV-1 MGRM-G-016 Env (HIV-1)
[48] = target: HIV-1 MGRM-G-027 Env (HIV-1)
[49] = target: HIV-1 MGRM-G-028 Env (HIV-1)
[50] = target: HIV-1 THR0.18 (Acute) Env on pseudovirus (HIV-1)
[51] = target: aMLV envelope (negative control pseudovirus)
[52] = target: aMLV envelope

Chain of 1443_C16 (PG16) (TCN-116) (antibody) (VH): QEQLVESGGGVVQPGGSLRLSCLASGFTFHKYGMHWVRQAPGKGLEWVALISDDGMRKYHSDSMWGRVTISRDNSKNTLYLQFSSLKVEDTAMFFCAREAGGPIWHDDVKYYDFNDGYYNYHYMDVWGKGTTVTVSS
Chain of 1443_C16 (PG16) (TCN-116) (antibody) (VL): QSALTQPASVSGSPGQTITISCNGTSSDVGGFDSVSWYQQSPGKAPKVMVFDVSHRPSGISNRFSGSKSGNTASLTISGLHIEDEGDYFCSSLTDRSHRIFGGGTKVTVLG

Q: How did the IC50 [1] turn out when 1443_C16 (PG16) (TCN-116) (antibody) was run?
A: 36.9 µg/mL

Q: What about the IC50, TZM-bl pseudovirus neutralization [2] of the same substance?
A: 0.09 µg/mL

Q: What about the neutralization IC50 [2] of the same substance?
A: 0.004 µg/mL

Q: What about the neutralization IC90 [2] of the same substance?
A: > 50 µg/mL

Q: What about the IC50 (µg/ml), pseudovirus neutralization [3] of the same substance?
A: > 50 µg/mL

Q: And the neutralization IC50 [3]?
A: > 50 µg/mL

Q: What about the neutralization IC90 [3] of the same substance?
A: > 50 µg/mL

Q: What about the neutralization IC50 [4] of the same substance?
A: 0.102 µg/mL

Q: And the neutralization IC90 [4]?
A: > 50 µg/mL

Q: And the IC50 [5]?
A: 0.25 µg/mL

Q: And the IC50 [6]?
A: > 50 µg/mL

Q: What about the IC50 [7] of the same substance?
A: 5.76 µg/mL

Q: What about the IC50 [8] of the same substance?
A: 0.003 µg/mL

Q: What about the neutralization IC50 [9] of the same substance?
A: > 50 µg/mL

Q: And the neutralization IC90 [9]?
A: > 50 µg/mL

Q: What about the IC50 [10] of the same substance?
A: 24.8 µg/mL

Q: What about the neutralization IC50 [11] of the same substance?
A: 14.8 µg/mL

Q: And the neutralization IC90 [11]?
A: > 50 µg/mL

Q: And the IC50 [12]?
A: 0.02 µg/mL

Q: And the IC50 (µg/ml), pseudovirus neutralization [13]?
A: 4.33 µg/mL

Q: And the IC50 (µg/ml), pseudovirus neutralization [14]?
A: 0.03 µg/mL

Q: And the IC50 (µg/ml), pseudovirus neutralization [15]?
A: 0.02 µg/mL

Q: What about the IC50 (µg/ml), pseudovirus neutralization [16] of the same substance?
A: 0.03 µg/mL

Q: What about the IC50 (µg/ml), pseudovirus neutralization [17] of the same substance?
A: 0.04 µg/mL

Q: What about the IC50 (µg/ml), pseudovirus neutralization [18] of the same substance?
A: > 50 µg/mL

Q: What about the IC50 (µg/ml), pseudovirus neutralization [19] of the same substance?
A: 0.002 µg/mL

Q: What about the IC50 (µg/ml), pseudovirus neutralization [20] of the same substance?
A: > 50 µg/mL

Q: What about the IC50 [21] of the same substance?
A: > 50 µg/mL

Q: What about the IC50 [22] of the same substance?
A: 0.48 µg/mL

Q: What about the IC50 [23] of the same substance?
A: > 50 µg/mL

Q: And the IC50 [24]?
A: 0.002 µg/mL

Q: What about the IC50 [25] of the same substance?
A: 0.04 µg/mL

Q: What about the IC50 [26] of the same substance?
A: > 50 µg/mL

Q: And the IC50 [27]?
A: 0.01 µg/mL

Q: And the IC50 [28]?
A: > 50 µg/mL

Q: What about the IC50 [29] of the same substance?
A: 3.74 µg/mL

Q: What about the IC50 [30] of the same substance?
A: 0.7 µg/mL

Q: What about the IC50 (µg/ml), pseudovirus neutralization [31] of the same substance?
A: 0.01 µg/mL

Q: And the IC50 (µg/ml), pseudovirus neutralization [32]?
A: 0.35 µg/mL

Q: What about the IC50 (µg/ml), pseudovirus neutralization [33] of the same substance?
A: 0.11 µg/mL

Q: What about the IC50 (µg/ml), pseudovirus neutralization [34] of the same substance?
A: 0.02 µg/mL

Q: And the IC50 (µg/ml), pseudovirus neutralization [35]?
A: 0.01 µg/mL

Q: What about the IC50 (µg/ml), pseudovirus neutralization [36] of the same substance?
A: > 50 µg/mL

Q: What about the IC50 (µg/ml), pseudovirus neutralization [37] of the same substance?
A: 0.02 µg/mL

Q: And the IC50 (µg/ml), pseudovirus neutralization [38]?
A: > 50 µg/mL

Q: What about the IC50 (pseudovirus neutralization) [39] of the same substance?
A: 0.43 µg/mL

Q: And the IC50 (pseudovirus neutralization) [40]?
A: 0.01 µg/mL

Q: What about the IC50 (µg/ml), pseudovirus neutralization [41] of the same substance?
A: 0.15 µg/mL

Q: What about the IC50 (µg/ml), pseudovirus neutralization [42] of the same substance?
A: 2.42 µg/mL

Q: And the IC50 (µg/ml), pseudovirus neutralization [43]?
A: > 50 µg/mL

Q: And the IC50 (µg/ml), pseudovirus neutralization [44]?
A: 0.04 µg/mL

Q: What about the IC50 (µg/ml), pseudovirus neutralization [45] of the same substance?
A: 6.98 µg/mL

Q: What about the IC50 (µg/ml), pseudovirus neutralization [46] of the same substance?
A: 5.33 µg/mL

Q: And the IC50 (µg/ml), pseudovirus neutralization [47]?
A: 11.3 µg/mL

Q: And the IC50 (µg/ml), pseudovirus neutralization [48]?
A: 0.01 µg/mL

Q: And the IC50 (µg/ml), pseudovirus neutralization [49]?
A: 3.09 µg/mL

Q: And the IC50 [50]?
A: 1.34 µg/mL

Q: And the IC50 (pseudovirus neutralization) [51]?
A: > 50 µg/mL

Q: What about the neutralization IC50 [52] of the same substance?
A: > 50 µg/mL

Q: What about the neutralization IC90 [52] of the same substance?
A: > 50 µg/mL
